Measured values taken from patent publication US20260184748A1 (University of Pennsylvania, published 2026).
Where no end group is shown, it is not given here. [ ]: non-standard residue; d: D form.

Tests used:
Assay in all cases: cell-based or functional assay
[1] = biological target: F2RL1 (UniProt P55085 26-397, limits assumed)
[2] = biological target: T1, FPRL1 (UniProt P25090 1-351)
T1 sequence (looked up): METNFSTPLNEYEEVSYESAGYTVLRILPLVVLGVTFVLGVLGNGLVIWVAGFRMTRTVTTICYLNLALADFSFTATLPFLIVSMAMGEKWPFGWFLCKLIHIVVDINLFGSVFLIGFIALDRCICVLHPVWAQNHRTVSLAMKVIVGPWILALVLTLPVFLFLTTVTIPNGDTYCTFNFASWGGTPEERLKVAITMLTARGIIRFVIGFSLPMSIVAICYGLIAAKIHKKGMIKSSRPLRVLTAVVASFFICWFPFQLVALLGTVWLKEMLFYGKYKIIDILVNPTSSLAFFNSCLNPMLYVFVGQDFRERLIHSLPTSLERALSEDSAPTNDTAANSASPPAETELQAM

[3] = biological target: T2, FPR1 (UniProt P21462 1-350)
T2 sequence (looked up): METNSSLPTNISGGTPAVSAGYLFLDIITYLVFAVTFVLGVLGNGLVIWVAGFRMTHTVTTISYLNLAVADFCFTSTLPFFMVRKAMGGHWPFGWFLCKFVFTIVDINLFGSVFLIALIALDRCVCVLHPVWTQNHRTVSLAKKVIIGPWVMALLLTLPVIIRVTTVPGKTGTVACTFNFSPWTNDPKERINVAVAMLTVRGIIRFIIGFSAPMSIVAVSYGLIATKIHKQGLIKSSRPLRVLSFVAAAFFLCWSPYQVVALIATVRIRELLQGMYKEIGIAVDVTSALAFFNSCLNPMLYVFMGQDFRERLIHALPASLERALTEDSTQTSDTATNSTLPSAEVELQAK

SLIGRL-NH2 [SLIGRL-NH2]
EC50 (RC50), arrestin, agonist mode [1]: 552 nM
EC80, arrestin, agonist mode [1]: 2130 nM

WKYMV[dM]-NH2 [WKYMVm-NH2]
EC80, arrestin, agonist mode [2]: 11.8 nM
EC80, arrestin, agonist mode [3]: 25.2 nM
